# Experimental data reported in patent publication US11473073B2, “Aminopeptidases for protein hydrolyzates” (DUPONT NUTRITION BIOSCIENCES APS, priority 2015, dated 2022).
# B1: TRI031: fungal aminopeptidase type-2 (pepN_2), NCBI XP_001258675 from Neosartorya fischeri NRRL 181, expressed in Trichoderma reesei (protein)
# chain: MQTFGAFLVSFLAASGLAAANGPGWDWKPPVHPKVLPQMIHLWDLMHGAQKLEDFAYAYPERNRVFGGPAHEDTVNYLYRELKKTGYYDVYKQPQVHQWTRADQALTVDGKSYVATTMTYSPSVNVTAPLAVVNNLGCVESDYPADLKGKIALVSRGECPFATKSVLSAKAGAAAALVYNNIEGSMAGTLGGPTSELGPYAPIAGISLADGQALIQMIQAGTVTANLWIDSKVENRTTYNVIAQTKGGDPNNVVALGGHTDSVEAGPGINDDGSGIISNLVVAKALTRFSVKNAVRFCFWTAEEFGLLGSSYYVNSLNATEKAKIRLYLNFDMIASPNYALMIYDGDGSAFNLTGPAGSAQIERLFEDYYKSIRKPFVPTEFNGRSDYEAFILNGIPAGGIFTGAEAIKTEEQAKLFGGQAGVALDANYHAKGDNMTNLNREAFLINSKATAFAVATYANSLDSIPSRNMSTVVKRSQLEQAKKSTPHTHTGGTGCYKDRVEQ
# modifications: Synthetic peptide with leader sequence
# notes: fungal aminopeptidase type-2 (pepN_2), NCBI XP_001258675 from Neosartorya fischeri NRRL 181, expressed in Trichoderma reesei
# Columns and labels:
# Type in all cases: biochemical
# [1] = test system: soy protein isolate (SPI); experiment: Degree of hydrolysis of pre-hydrolysed soy protein isolate; conditions: 50° C., 20 hr
# Procedure: (§1) The degree of hydrolyses (DH) describes the relative amount of cleaved peptides bounds compared to an acid hydrolyses of the same amount of protein conducted e.g. in 6 M HCL at ˜120° C. for ˜24 h. The higher the DH can therefore be applied to assess the efficiency of amino acid liberation of a general PepN such as a PepN 1 or a PepN 2 type. The cell free culture broth was concentrated (10 kDa cut-off, Sartorius, Göttingen, Germany) and desalted applying a disposal desalting column (PD10, GE, Munchen, Germany) as described by the manufacturer. As substrates were pre-hydrolysed 10% (w/w) Na-caseinate (DMK, Germany), whey protein isolate (WPI; Arla, Viby, Denmark), soy protein isolate (SPI; SUPRO® 760, DuPont, Brabrand, Denmark) and gluten suspensions were applied. The pre-hydrolysis was conducted with 1% (w/wprotein) of FOODPRO® Alkaline Protease, 1% (w/wprotein) FOODPRO® PNL for the Na-Caseinate, the WPI as well as the SPI suspension. All pre-hydrolyses were conducted at 55° C. for 18 h followed by an inactivation step at 95° C. for 20 min. Each applied PepN 2 has been inactivated at 95 C for 15 min as a control of the elimination of any carryover of amino acids from the culture broth to the final hydrolyses as well as for the sufficient inactivation of the applied endopeptidases. The hydrolyses were conducted in a 96-well micro titer plate format and consisted of 150 μL of the pre-hydrolyzed protein suspension combined with 50 μL of a PepN 2 stock solution as indicated in Table 1 below. The hydrolyses were conducted at 50° C. for 20 hr, subsequently, the hydrolysis were stopped by the addition of 20 μL 2 M TCA (Trichloroacetic acid, Sigma-Aldrich, Schnelldorf, Germany). The efficiency of the amino acid liberation of the PepN 2 types from Neosartorya fischeri and Aspergillus clavatus can be seen in Table 1 (B) and (A). […] For the gluten hydrolyses, an increased DH was noticed in the protein range from 0.02-0.3 mg/mL PepN 2.
# [2] = test system: whey protein isolate (WPI); experiment: Degree of hydrolysis of pre-hydrolysed whey protein isolate; conditions: 50° C., 20 hr
# Procedure: as §1
# [3] = test system: gluten; experiment: Degree of hydrolysis of pre-hydrolysed gluten; conditions: 50° C., 20 hr
# Procedure: as §1
# [4] = Product inhibition of H-Ala-pNA hydrolysis by amino acid inhibitor mix; conditions: pH 9.0, 30° C.
# Procedure: Sigma cat # D2650). […] […] and proline were dissolved in DMSO. All other amino acids were dissolved in buffer. […] The reaction was started by adding 20 μL substrate. Only one substrate concentration was used per plate.
# [5] = test system: peptide WHWLQLKPGQPMY (SEQ ID NO:26); experiment: Hydrolysis of proline containing peptide, LC-MS; conditions: peptide 1 mg/mL, aminopeptidase 1 ug/mL, CPB-Buffer, 55° C.; FIG. 5-7
# Procedure: The peptide […] (SEQ ID NO:26) was hydrolysed with TRI03 and TRI035. The peptide (1 mg/mL) was incubated with 1 ug/mL of the aminopeptidase in 20 mM CPB-Buffer (20 mM Citric acid, 20 mM Phosphate. 20 mM Boric acid) at 55° C. Aliquots (50 μL) were stopped with 50 rel 5% TFA at the indicated time points and subjected to LC-MS analysis.
# Capillary LC-MS/MS analyses were performed using an Agilent 1100 LC system (Agilent Technologies) interfaced to a LTQ Orbitrap Classic hybrid mass spectrometer (Thermo Scientific, Bremen, Germany). Samples were loaded onto a 15 cm Phenomenix Jupiter 4μ Proteo 90A, C4 analytical column. Separation was performed at a flow rate of 16 μL/min using a 10 min gradient of 0-40% Solvent B H2O/CH3CN/HCOOH (50/950/0.65 v/v/v) into the IONMAX® ion source (Thermo Scientific, San Jose). The LTQ Orbitrap Classic instrument was operated in a data-dependent MS/MS mode. The peptide masses were measured by the Orbitrap (MS scans were obtained with a resolution of 60 000 at m/z 400), and up to 2 of the most intense peptide m/z were selected and subjected to fragmentation using CID in the linear ion trap (LTQ). Dynamic exclusion was enabled with a list size of 500 masses, duration of 40 s, and an exclusion mass width of ±10 ppm relative to masses on the list.
# The RAW files were accessed with the program Skyline 2.6.0.7176 (MacLean, B., et al., “Skyline: an open source document editor for creating and analyzing targeted proteomics experiments”, Bioinformatics, 2010, 26(7): p. 966-8) which uses the MS1 intensities to build chromatograms (Schilling, B., et al., “Platform-independent and label-free quantitation of proteomic data using MS1 extracted ion chromatograms in skyline: application to protein acetylation and phosphorylation”, Mol Cell Proteomics, 2012. 11(5): p. 202-14). The precursor isotopic import filter was set to a count of three, (M, M+1, and M+2) at a resolution of 60,000 and the most intense charge state was used. Peptide sequences of the substrate as well as cleavage products were typed into Skyline and intensities were calculated in each sample. […]
# [6] = test system: Na-caseinate; experiment: Degree of hydrolysis of pre-hydrolysed Na-caseinate; conditions: Casein, 50° C., 20 hr
# Procedure: as §1
# [7] = inactivated enzyme at the highest conc.
molecule,measurement,setting,value
B1,Degree of hydrolysis,[1]; PepN 2 stock 0.02 mg/mL,11%
same,Degree of hydrolysis,[1]; PepN 2 stock 0.03 mg/mL,13%
same,Degree of hydrolysis,[1]; PepN 2 stock 0.04 mg/mL,14%
same,Degree of hydrolysis,[1]; PepN 2 stock 0.05 mg/mL,15%
same,Degree of hydrolysis,[1]; PepN 2 stock 0.1 mg/mL,17%
same,Degree of hydrolysis,[1]; PepN 2 stock 0.15 mg/mL,18%
same,Degree of hydrolysis,[1]; PepN 2 stock 0.2 mg/mL,19%
same,Degree of hydrolysis,[1]; PepN 2 stock 0.25 mg/mL,19%
same,Degree of hydrolysis,[1]; PepN 2 stock 0.3 mg/mL,19%
same,Degree of hydrolysis,[1]; PepN 2 stock 0.35 mg/mL,22%
same,Degree of hydrolysis,[1]; [7],6%
same,Degree of hydrolysis,[2]; PepN 2 stock 0.02 mg/mL,17%
same,Degree of hydrolysis,[2]; PepN 2 stock 0.03 mg/mL,19%
same,Degree of hydrolysis,[2]; PepN 2 stock 0.04 mg/mL,19%
same,Degree of hydrolysis,[2]; PepN 2 stock 0.05 mg/mL,21%
same,Degree of hydrolysis,[2]; PepN 2 stock 0.1 mg/mL,23%
same,Degree of hydrolysis,[2]; PepN 2 stock 0.15 mg/mL,28%
same,Degree of hydrolysis,[2]; PepN 2 stock 0.2 mg/mL,24%
same,Degree of hydrolysis,[2]; PepN 2 stock 0.25 mg/mL,26%
same,Degree of hydrolysis,[2]; PepN 2 stock 0.3 mg/mL,27%
same,Degree of hydrolysis,[2]; PepN 2 stock 0.35 mg/mL,29%
same,Degree of hydrolysis,[2]; [7],8%
same,Degree of hydrolysis,[3]; PepN 2 stock 0.02 mg/mL,10%
same,Degree of hydrolysis,[3]; PepN 2 stock 0.03 mg/mL,13%
same,Degree of hydrolysis,[3]; PepN 2 stock 0.04 mg/mL,15%
same,Degree of hydrolysis,[3]; PepN 2 stock 0.05 mg/mL,14%
same,Degree of hydrolysis,[3]; PepN 2 stock 0.1 mg/mL,17%
same,Degree of hydrolysis,[3]; PepN 2 stock 0.15 mg/mL,18%
same,Degree of hydrolysis,[3]; PepN 2 stock 0.2 mg/mL,19%
same,Degree of hydrolysis,[3]; PepN 2 stock 0.25 mg/mL,19%
same,Degree of hydrolysis,[3]; PepN 2 stock 0.3 mg/mL,21%
same,Degree of hydrolysis,[3]; PepN 2 stock 0.35 mg/mL,20%
same,Degree of hydrolysis,[3]; [7],4%
same,product inhibition compared to TRI063 from A. oryzae,[4],less inhibited by product
same,hydrolysis of WHWLQLKPGQPMY to KPGQPMY and further down to QPMY,[5],can hydrolyze
same,Degree of hydrolysis,[6]; PepN 2 stock 0.02 mg/mL,14%
same,Degree of hydrolysis,[6]; PepN 2 stock 0.03 mg/mL,15%
same,Degree of hydrolysis,[6]; PepN 2 stock 0.04 mg/mL,16%
same,Degree of hydrolysis,[6]; PepN 2 stock 0.05 mg/mL,20%
same,Degree of hydrolysis,[6]; PepN 2 stock 0.1 mg/mL,19%
same,Degree of hydrolysis,[6]; PepN 2 stock 0.15 mg/mL,21%
same,Degree of hydrolysis,[6]; PepN 2 stock 0.2 mg/mL,23%
same,Degree of hydrolysis,[6]; PepN 2 stock 0.25 mg/mL,22%
same,Degree of hydrolysis,[6]; PepN 2 stock 0.3 mg/mL,24%
same,Degree of hydrolysis,[6]; PepN 2 stock 0.35 mg/mL,24%
same,Degree of hydrolysis,[6]; [7],8%
